Source: paper PMC6912275, “Identification of Novel Adenylyl Cyclase 5 (AC5) Signaling Networks in D1 and D2 Medium Spiny Neurons using Bimolecular Fluorescence Complementation Screening” (Cells, 2019)

Tests used:
Endogenous PPP2CB = target: T1, Endogenous PPP2CB (human (endogenous in HEK 293), UniProt P62714 1-309); test: co-IP; endogenous PPP2CB or NAPA immunoprecipitated with its antibody and protein A agarose from HEK AC5/D2L cell lysate (0.5% C12E10, 150 mM NaCl, pH 7.5); AC activity measured in the immunoprecipitate with activated Gαs and FSK; cells under vehicle conditions (PPP2CB) or treated overnight with quinpirole (NAPA); conditions: partners not purified
T1 construct: protein phosphatase 2A catalytic subunit beta, endogenous in HEK 293 cells; also called protein phosphatase 2A (PP2A) catalytic subunit; source: endogenous, HEK AC5/D2L cell lysate
T1 sequence (P62714 whole entry): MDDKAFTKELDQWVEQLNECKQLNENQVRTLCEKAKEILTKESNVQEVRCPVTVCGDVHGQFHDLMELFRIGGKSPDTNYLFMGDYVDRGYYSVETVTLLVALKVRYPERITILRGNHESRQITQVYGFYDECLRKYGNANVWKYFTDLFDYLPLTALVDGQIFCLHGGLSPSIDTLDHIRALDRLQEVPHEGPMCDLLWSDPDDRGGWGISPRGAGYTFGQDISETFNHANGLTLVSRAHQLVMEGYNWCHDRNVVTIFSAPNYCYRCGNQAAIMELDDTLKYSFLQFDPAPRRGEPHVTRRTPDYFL

Endogenous NAPA = target: T2, Endogenous NAPA (human (endogenous in HEK 293), UniProt P54920 1-295); test: as above; conditions: partners not purified
T2 construct: NSF attachment protein alpha, endogenous in HEK 293 cells; also called NSF attachment protein alpha; source: endogenous, HEK AC5/D2L cell lysate
T2 sequence (looked up): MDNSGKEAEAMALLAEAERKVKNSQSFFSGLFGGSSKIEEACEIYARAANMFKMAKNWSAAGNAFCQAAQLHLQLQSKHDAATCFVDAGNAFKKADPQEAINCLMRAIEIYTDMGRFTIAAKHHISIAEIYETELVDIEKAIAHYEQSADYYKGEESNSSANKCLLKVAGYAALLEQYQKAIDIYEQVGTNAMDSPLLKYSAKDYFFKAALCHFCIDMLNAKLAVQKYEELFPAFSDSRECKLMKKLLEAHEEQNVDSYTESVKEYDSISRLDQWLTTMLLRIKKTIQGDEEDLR

- fold AC activity in the immunoprecipitate against the control (Endogenous PPP2CB): 4 fold
- fold AC activity in the immunoprecipitate against the vehicle-treated group (Endogenous NAPA): 4.5 fold
B1: human AC type 5 (in HEK-AC5/D2L cells) (enzyme)
chain: not shown
notes: adenylyl cyclase type 5 (AC5), human; Found in the immunoprecipitates by its adenylyl cyclase activity, not by a blot; also called adenylyl cyclase type 5; source: HEK 293 cells stably expressing human D2L and human AC5 (HEK-AC5/D2L), in lysate
